Several values for one entry are separate records, joined by “and”; a condition that tells them apart may be missing. Equal values may be shown once.

This passage reports fold enrichment (log2) results from US20220143214A1.

Experiment [1] deals with LY6A (Ly6a, C57BL/6J mouse) (mouse (C57BL/6J)) (UniProt P05533). Put plainly: AAV library bound to Ly6a-transfected HEK293T cells, NGS.
Experiment [2] addresses LY6C1 (Ly6c1, C57BL/6J mouse, splice variant 1) (mouse (C57BL/6J)) (UniProt P0CW02). In words: AAV library bound to Ly6c1-transfected HEK293T cells, NGS.
Chain of UniProt P0CW02 (P0CW02 27-109 limits assumed, change not shown): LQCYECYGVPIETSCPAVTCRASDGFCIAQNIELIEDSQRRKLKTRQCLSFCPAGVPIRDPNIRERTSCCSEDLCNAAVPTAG

Chain of UniProt P05533 (P05533 27-112 limits assumed): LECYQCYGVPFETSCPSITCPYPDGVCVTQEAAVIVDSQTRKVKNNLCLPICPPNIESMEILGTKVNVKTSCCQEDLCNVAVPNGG

For AAV9 K449R 7-mer variant AADRPFL, the values for the fold enrichment (log2) in experiment [1] and in experiment [2] were 2.73 log2 and -3.32 log2, respectively. The matching figures for AAV9 K449R 7-mer variant AGSFKDI: 3.96 log2 and -2.87 log2. The matching figures for AAV9 K449R 7-mer variant AISAPFK: 2.56 log2 and -0.06 log2.

Take AAV9 K449R 7-mer variant AKAGYAS: the fold enrichment (log2) was -0.03 log2 in experiment [1] and 4.54 log2 in experiment [2]. Turning to AAV9 K449R 7-mer variant ALAKPFI, the results for the fold enrichment (log2) in experiment [1] and in experiment [2] were 1.91 log2 and -0.19 log2, respectively.

Turning to AAV9 K449R 7-mer variant ALHVPFK, the results for the fold enrichment (log2) in experiment [1] and in experiment [2] were 4.11 log2 and 0.26 log2, respectively.

In the case of AAV9 K449R 7-mer variant ASSKPFL, the fold enrichment (log2) in experiment [1] was determined as 3.9 log2; in experiment [2] it was 1.19 log2. The matching figures for AAV9 K449R 7-mer variant DKAWGST: 0.19 log2 and 3.56 log2. The matching figures for AAV9 K449R 7-mer variant DKQKPFL: 4.6 log2 and 0.94 log2. The matching figures for AAV9 K449R 7-mer variant DKYNFSS: -0.13 log2 and 3.43 log2.

As for AAV9 K449R 7-mer variant DMERPFK, the fold enrichment (log2) in experiment [1] was 4.51 log2; in experiment [2], -3.91 log2. The matching figures for AAV9 K449R 7-mer variant DRIHGYS: -0.11 log2 and 4.34 log2.

Consider AAV9 K449R 7-mer variant DRKGYSA, for which the fold enrichment (log2) in experiment [1] was -0.39 log2; in experiment [2] it was 2.77 log2. Take AAV9 K449R 7-mer variant DSQRPFI: the values for the fold enrichment (log2) in experiment [1] and in experiment [2] were 2.63 log2 and -3.55 log2, respectively. The matching figures for AAV9 K449R 7-mer variant DTKWSSS: 0.53 log2 and 4.11 log2. On to AAV9 K449R 7-mer variant DVKYGSS, for which the fold enrichment (log2) in experiment [1] was -0.36 log2; in experiment [2], 4.92 log2. The matching figures for AAV9 K449R 7-mer variant EDHRYSS: 0.17 log2 and 3.4 log2.

Turning to AAV9 K449R 7-mer variant EIRGYSS, the figures for the fold enrichment (log2) in experiment [1] and in experiment [2] were 0.75 log2 and 4.92 log2, respectively.

On to AAV9 K449R 7-mer variant EKKQYSS, for which the fold enrichment (log2) came out at 0.89 log2 in experiment [1] and 4.45 log2 in experiment [2]. For AAV9 K449R 7-mer variant ESRGFSS, in that order: -0.58 log2 and 4.7 log2. The matching figures for AAV9 K449R 7-mer variant ESSKPFR: 3.15 log2 and 1.28 log2. AAV9 K449R 7-mer variant ESTRPFK: the fold enrichment (log2) in experiment [1] turned out to be 2.87 log2; in experiment [2], 0.28 log2. The matching figures for AAV9 K449R 7-mer variant FLPGYSS: -2.29 log2 and 2.54 log2. The matching figures for AAV9 K449R 7-mer variant FRIGGSS: 1.34 log2 and 4.89 log2. The matching figures for AAV9 K449R 7-mer variant GDNRPFK: 2.65 log2 and 0.57 log2.

On to AAV9 K449R 7-mer variant GESRPFI, for which the fold enrichment (log2) in experiment [1] was 3.32 log2; in experiment [2], -2.08 log2. Turning to AAV9 K449R 7-mer variant GGRGLSS, the fold enrichment (log2) in experiment [1] worked out at 2 log2; in experiment [2], 4.9 log2. The matching figures for AAV9 K449R 7-mer variant GKHFSST: 2.64 log2 and 4.25 log2. Take AAV9 K449R 7-mer variant GKTGYST: the fold enrichment (log2) in experiment [1] is -3.32 log2; in experiment [2], 2.93 log2.

For AAV9 K449R 7-mer variant GKTHGYS, the fold enrichment (log2) was 1.65 log2 in experiment [1] and 3.87 log2 in experiment [2].

Consider AAV9 K449R 7-mer variant GNENFSS, for which the fold enrichment (log2) in experiment [1] was -1.43 log2; in experiment [2], 3.45 log2. AAV9 K449R 7-mer variant GSERPFL: the fold enrichment (log2) in experiment [1] was 3.78 log2; in experiment [2], -4.2 log2. For AAV9 K449R 7-mer variant GSYGYSS, in that order: -3.32 log2 and 2.48 log2.

Consider AAV9 K449R 7-mer variant GVDRPFK, for which the fold enrichment (log2) in experiment [1] was 3.84 log2; in experiment [2] it was -1.13 log2. As to AAV9 K449R 7-mer variant HEHRYST, the fold enrichment (log2) in experiment [1] is -4.06 log2; in experiment [2], 3.06 log2.

On to AAV9 K449R 7-mer variant HKTHYSS, for which the fold enrichment (log2) worked out at 0.86 log2 in experiment [1] and 3.24 log2 in experiment [2].

For AAV9 K449R 7-mer variant HNVFKNP, the fold enrichment (log2) was 2.09 log2 in experiment [1] and 0.33 log2 in experiment [2].

For the substance AAV9 K449R 7-mer variant HTQGYST, the results for the fold enrichment (log2) in experiment [1] and in experiment [2] were -3.32 log2 and 2.26 log2, respectively. The matching figures for AAV9 K449R 7-mer variant IATGYSQ: -3.74 log2 and 2.18 log2. For AAV9 K449R 7-mer variant IDRGYSV, in that order: -1.04 log2 and 5.3 log2.

As for AAV9 K449R 7-mer variant IRQGYSS, the fold enrichment (log2) in experiment [1] was -1.28 log2; in experiment [2], 2.61 log2. The matching figures for AAV9 K449R 7-mer variant IRVGYST: -3.55 log2 and 3.46 log2. For AAV9 K449R 7-mer variant IVRGLSS, in that order: -1.14 log2 and 3.24 log2.

With AAV9 K449R 7-mer variant KDKFKDI, the fold enrichment (log2) in experiment [1] is 3.38 log2; in experiment [2], -2.08 log2. Turning to AAV9 K449R 7-mer variant KQYQGST, the values for the fold enrichment (log2) in experiment [1] and in experiment [2] were 1.54 log2 and 4.88 log2, respectively. As to AAV9 K449R 7-mer variant KTQFKDV, the results for the fold enrichment (log2) in experiment [1] and in experiment [2] were 2.09 log2 and -3.55 log2, respectively. For AAV9 K449R 7-mer variant LAHTYSS, in that order: 0.04 log2 and 3.97 log2. The matching figures for AAV9 K449R 7-mer variant LKKGYST: 1.72 log2 and 2.96 log2. For AAV9 K449R 7-mer variant LKTGMSS, in that order: -0.66 log2 and 2.74 log2. Take AAV9 K449R 7-mer variant LKYGTST: the fold enrichment (log2) in experiment [1] was 1.24 log2; in experiment [2], 4.88 log2. As to AAV9 K449R 7-mer variant LLRGASS, the fold enrichment (log2) was -0.33 log2 in experiment [1] and 2.96 log2 in experiment [2]. For AAV9 K449R 7-mer variant LNRGSST, in that order: 1.72 log2 and 4.15 log2. Turning to AAV9 K449R 7-mer variant LRGGYST, the figures for the fold enrichment (log2) in experiment [1] and in experiment [2] were -3.32 log2 and 2.88 log2, respectively.

As for AAV9 K449R 7-mer variant LRMGASS, the figures for the fold enrichment (log2) in experiment [1] and in experiment [2] were 0.91 log2 and 4.17 log2, respectively. As to AAV9 K449R 7-mer variant LRTAYSS, the fold enrichment (log2) stood at 1.13 log2 in experiment [1] and 5.12 log2 in experiment [2]. The matching figures for AAV9 K449R 7-mer variant LSKGLSS: -3.55 log2 and 3.55 log2. The matching figures for AAV9 K449R 7-mer variant LSMGYST: -3.91 log2 and 2.97 log2. The matching figures for AAV9 K449R 7-mer variant LTKWEST: 0.82 log2 and 3.91 log2.

On to AAV9 K449R 7-mer variant LWAKGST, for which the values for the fold enrichment (log2) in experiment [1] and in experiment [2] were 1.42 log2 and 3.9 log2, respectively. The matching figures for AAV9 K449R 7-mer variant LYAGRSS: 1.03 log2 and 4.13 log2.

As to AAV9 K449R 7-mer variant MERYGSS, the fold enrichment (log2) in experiment [1] was -2.28 log2; in experiment [2] it was 3.83 log2. On to AAV9 K449R 7-mer variant MMAKPFL, for which the fold enrichment (log2) in experiment [1] is 4.53 log2; in experiment [2], -0.49 log2. The matching figures for AAV9 K449R 7-mer variant MNIGYSA: -1.48 log2 and 2.4 log2. For AAV9 K449R 7-mer variant MRTFGSA, in that order: 1 log2 and 3.97 log2. The matching figures for AAV9 K449R 7-mer variant MRTLMSS: -0.52 log2 and 3.85 log2. Regarding AAV9 K449R 7-mer variant MVRNYST, the fold enrichment (log2) in experiment [1] is -0.94 log2; in experiment [2], 3.25 log2. The matching figures for AAV9 K449R 7-mer variant NDQRPFL: 3.27 log2 and -4.33 log2. The matching figures for AAV9 K449R 7-mer variant NERRPFL: 4.31 log2 and 0.77 log2. The matching figures for AAV9 K449R 7-mer variant NGYKGST: 1.24 log2 and 4.98 log2.

Consider AAV9 K449R 7-mer variant NIIRPFA, for which the fold enrichment (log2) in experiment [1] was found to be 3.23 log2; in experiment [2], 0.4 log2.

Regarding AAV9 K449R 7-mer variant NKVGYST, the fold enrichment (log2) was -3.74 log2 in experiment [1] and 3.13 log2 in experiment [2]. The matching figures for AAV9 K449R 7-mer variant NLKRPFA: 2.8 log2 and 0.85 log2. With AAV9 K449R 7-mer variant NYTGYSS, the fold enrichment (log2) in experiment [2] is 4.83 log2 and 4.44 log2.
